Square brackets hold non-standard residues; d marks the D form. Peptide text beside a SMILES is read from it. * marks the point of attachment. X2 = O=C(O)C(CCCCN*)N1CCCN2CCN(CCCN(CP(=O)(O)O)CC2)CC1; PEG4 = NCCOCCOCCOCCOCCC(=O)O; X1 = O=C(/C=C/c1ccccc1)*
Experiment: serum stability of 64Cu-labelled cFlFlF peptide–chelate conjugates
Type: in vitro ADME
Conditions: compared with the 64Cu–CB-TE1A1P peptide, result in words (Fig. S2b, ESI)

## CC(C)C[C@@H](NC(=O)[C@H](Cc1ccccc1)NC(=O)[C@@H](CC(C)C)NC(=O)[C@H](Cc1ccccc1)NC(=O)/C=C/c1ccccc1)C(=O)N[C@@H](Cc1ccccc1)C(=O)NCCOCCOCCOCCOCCC(=O)NCCCCC(C(=O)O)N1CCCN2CCN(CCCN(CP(=O)(O)O)CC2)CC1 (stereo partly drawn) [64Cu–CB-TE1K1P peptide, metal not drawn] (X1-F[dL]F[dL]F[PEG4]-X2; N-terminus assumed)
  serum stability: better serum stability

Source: publication PMC4277816 (Chemical communications (Cambridge, England), 2014)
